Source: US20030012792

Molecular target: alpha-1 antichymotrypsin (ACT, Sigma Chemical Co.) (UniProt P01011)
Sequence (P01011 24-423): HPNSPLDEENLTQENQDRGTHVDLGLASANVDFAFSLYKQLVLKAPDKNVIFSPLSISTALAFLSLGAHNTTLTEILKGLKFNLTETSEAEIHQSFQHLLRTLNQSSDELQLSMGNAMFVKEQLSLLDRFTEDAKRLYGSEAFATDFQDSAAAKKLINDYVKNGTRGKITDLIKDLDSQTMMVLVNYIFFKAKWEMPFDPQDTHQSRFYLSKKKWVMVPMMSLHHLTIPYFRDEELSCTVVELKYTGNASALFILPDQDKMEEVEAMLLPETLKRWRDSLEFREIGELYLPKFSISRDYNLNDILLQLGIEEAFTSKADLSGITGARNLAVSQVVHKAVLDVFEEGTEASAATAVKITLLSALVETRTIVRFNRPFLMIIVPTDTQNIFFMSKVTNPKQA

How did the “proteolytic (serine protease) activity of PSA on synthetic substrate S-2586, absorbance at 405 nm” value turn out when “Human Prostate-Specific Antigen (purified human PSA, Vitro Diagnostics)” was run?
The value was “preincubation of PSA with ACT blocked both serine protease activity of purified PSA (FIG. 11)”.
